In paper PMC6072106:

Legend:
Details in all cases: EMSA: 24 mM Tris/HCl pH 7.5, 50 mM KCl, 10 mM MgCl2, 1 mM CaCl2, 0.1 mM EDTA, 5% glycerol, 0.05 ug/ul BSA, 0.05 ug/ul salmon sperm DNA, 20 ul, 20 min room …
[1] = target: T1, Fis (UniProt Q88DK4); test: DNase I footprinting
T1 sequence: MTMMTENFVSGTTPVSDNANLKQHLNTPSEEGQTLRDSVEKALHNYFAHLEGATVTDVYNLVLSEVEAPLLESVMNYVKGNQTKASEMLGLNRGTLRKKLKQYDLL

[2] = target: T1, Fis; test: EMSA with LF2 competition
[3] = target: T1, Fis; test: EMSA
[4] = target: T1, Fis; test: competition

| Sequence | binding [1] | binding [2] | binding [3] | binding [4] |
| --- | --- | --- | --- | --- |
| AGGATCCAATCGCCAGATGAACTTTACAAGGCGCAGAACAGCGAAATTCGAGCGCAGCAGTGGCACCGACCTTAATTATCATTACAGGGTTTGCAATTCGTTACCCGCTGCAAGAAACATAATTAACAAAACCGCGCGTAATGCCCGAATTTCAAGGCTCTCAGCCAGTTACGAACG (double strand) [Fis-nuo3-Fis-nuo4-mut] | binds more weakly | binds more weakly | – | – |
| AGGATCCAATCGCCAGATGAACTTTACAAGGCGCAGAACAGCGAAATTCGAGCGCAGCAGTTCAAATGATATTAATTATCATTACAGGGTTTGCAATTCGTTACCCGCTGCAAGAAACATAAGTCAGCCAACCGCGCGTAATGCCCGAATTTCAAGGCTCTCAGCCAGTTACGAACG (double strand) [Fis-nuo3-mut-Fis-nuo4] | binds more weakly | binds more weakly | – | – |
| AGGATCCAATCGCCAGATGAACTTTACAAGGCGCAGAACAGCGAAATTCGAGCGCAGCAGTTCAAATGATATTAATTATCATTACAGGGTTTGCAATTCGTTACCCGCTGCAAGAAACATAATTAACAAAACCGCGCGTAATGCCCGAATTTCAAGGCTCTCAGCCAGTTACGAACG (double strand) [nuoA promoter Fis-nuo3-Fis-nuo4 (170 bp)] | binds | – | binds | – |
| CGTGGGGTTATGCCGAGATAAGGCAAAAATTAGGACATTCGTTCTGTAAATATATGATTTAAAAGGTTATTCGAGAGGCCGTGGCTTGCTGGTCATCCACCGTCTGAGCTCAGC (double strand) [RF1] | – | – | – | no binding |
| GCGCGTAATGCCCGAATTTCAAGGCTCTCAGCCAGTTACGAACGTTTGTCCTACCTAATCCTACGAATAAATTTGCGACAGAAATTTTACTTGCACCAGGTTTACCCATAAAATCAGCGCGATTGATCCGGCTGCGACATTTGGTCACTG (double strand) [Fis-nuo1-Fis-nuo2-mut] | binds more weakly | binds more weakly | – | – |
| GCGCGTAATGCCCGAATTTCAAGGCTCTCAGCCAGTTACGAACGTTTTTTGTACTTAATCCTACGAATAAATTTGCGACAGAAATTTTACTTGCACCAGGTTTACCCATAAAATCAGCGCGATTGATCCGGCTGCGACATTTGGTCACTG (double strand) [nuoA promoter Fis-nuo1-Fis-nuo2 (150 bp)] | binds | – | binds | – |
| GCGCGTAATGCCCGAATTTCAAGGCTCTCAGCCAGTTACGAACGTTTTTTGTACTTAATCCTACGAATAAGGTTGCGAGTCGAATTTTACTTGCACCAGGTTTACCCATAAAATCAGCGCGATTGATCCGGCTGCGACATTTGGTCACTG (double strand) [Fis-nuo1-mut-Fis-nuo2] | binds more weakly | – | – | – |
